# Data reported in US20200262877A1, “ION CHANNEL-BINDING PEPTIDES AND METHODS OF USE THEREOF” (priority 2017, published 2020).
# Assays:
# 5HT3a = target: T1, 5HT3a (Homo sapiens, UniProt P46098); assay: Ion channel panel (IonWorks Barracuda): 5HT3a; type: cell-based
# T1 construct: host or cells: HEK293 or CHO
# T1 sequence (P46098 whole entry, looked up): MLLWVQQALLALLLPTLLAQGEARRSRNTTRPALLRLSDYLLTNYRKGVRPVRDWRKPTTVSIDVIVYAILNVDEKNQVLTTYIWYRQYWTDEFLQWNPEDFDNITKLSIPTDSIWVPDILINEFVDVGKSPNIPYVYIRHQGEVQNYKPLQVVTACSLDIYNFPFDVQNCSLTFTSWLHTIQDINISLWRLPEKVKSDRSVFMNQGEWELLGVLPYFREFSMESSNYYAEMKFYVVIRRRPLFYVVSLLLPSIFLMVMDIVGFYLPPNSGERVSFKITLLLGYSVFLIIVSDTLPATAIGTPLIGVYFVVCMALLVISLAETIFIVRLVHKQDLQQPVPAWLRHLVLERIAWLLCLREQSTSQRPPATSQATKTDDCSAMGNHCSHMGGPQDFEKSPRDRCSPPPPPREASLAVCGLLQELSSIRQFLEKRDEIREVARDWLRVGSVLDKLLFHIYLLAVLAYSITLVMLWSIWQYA
# Experimental: (§1) This example describes a method for assaying ion channel activity in cells.
# (§2) Peptides were screened in duplicate at final concentrations of 20 μM and 200 nM, as determined by amino acid analysis, and diluted into HEPES buffered physiological saline (HBPS). HEK293 or CHO cells from the American Type Culture Collection (ATCC) were transfected with the appropriate ion channel before use. HEK293 cells were grown in Dulbecco's Modified Eagle Medium/Nutrient Mixture F-12, and CHO cells were cultured in Ham's F-12 media. All cultures were supplemented with 10% fetal bovine serum, 100 U/ml penicillin G, 100 μg/ml streptomycin sulfate, and the appropriate selection antibiotics. Prior to use, cells were washed twice with Hank's Balanced Salt Solution, and treated with Accutase cell detachment solution (Sigma-Aldrich). Cells were then washed. Peptides and controls were incubated with cells for at least five minutes.
# (§3) Percent inhibition was defined as: (1-(Ipeptide/Icontrol))×100%).
# (§4) Percent values were calculated using the following formula: % activation=(IPeptide/Icontrol)×100%, where IPeptide is the current produced by co-application a peptide with agonist, and Icontrol refers to the current produced by stimulation in control. Control used for each ion channel is the reference compound matched to a particular channel, as illustrated in TABLE 10 below.
# α3β4 = target: T2, α3β4 (Homo sapiens, UniProt P30926+P32297); assay: Ion channel panel (IonWorks Barracuda): α3β4; type: cell-based; settings: 100% = no change, <100% = inhibition
# T2 construct: host or cells: HEK293 or CHO
# Experimental: as §1, §2, §3, §4
# α4β2 = target: T3, α4β2 (Homo sapiens, UniProt P17787+P43681); assay: Ion channel panel (IonWorks Barracuda): α4β2; type: cell-based; settings: 100% = no change, <100% = inhibition
# T3 construct: host or cells: HEK293 or CHO
# In short: (§5)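 Transfected HEK293 or CHO cells were exposed for at least 5 min to peptides at 200 nM and 20 μM final, tested in duplicate, in HEPES-buffered physiological saline. Activation was taken as peptide-plus-agonist current over control current ×100, and inhibition as 1 minus that ratio ×100. Each channel's control was its own reference compound.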
# Cav2.1 = target: T4, Cav2.1 (Homo sapiens, UniProt O00555); assay: cell-based; settings: 100% = no change, <100% = inhibition
# T4 construct: host or cells: HEK293 or CHO
# In short: as §5
# Cav2.2 = target: T5, Cav2.2 (Homo sapiens, UniProt Q00975); assay: cell-based; settings: 100% = no change, <100% = inhibition
# T5 construct: host or cells: HEK293 or CHO
# In short: as §5
# Kv2.1 = target: T6, Kv2.1 (Homo sapiens, UniProt Q14721); assay: cell-based; settings: 100% = no change, <100% = inhibition
# T6 construct: host or cells: HEK293 or CHO
# In short: as §5
# GABA = assay: Ion channel panel (IonWorks Barracuda): GABA; type: cell-based; settings: 100% = no change, <100% = inhibition
# In short: as §5
# Nav1.5 = Nav1.5 (Homo sapiens, UniProt Q14524); assay: in vitro; settings: 100% = no change; for Activity of Nav1.5 with peptide, expressed as a percentage of the reference compound: peptide at 0.2 μM; for Activity of Nav1.5 with peptide (percentage of the reference compound): peptide at 20 μM
# Sequence of Nav1.5 (Q14524 whole entry): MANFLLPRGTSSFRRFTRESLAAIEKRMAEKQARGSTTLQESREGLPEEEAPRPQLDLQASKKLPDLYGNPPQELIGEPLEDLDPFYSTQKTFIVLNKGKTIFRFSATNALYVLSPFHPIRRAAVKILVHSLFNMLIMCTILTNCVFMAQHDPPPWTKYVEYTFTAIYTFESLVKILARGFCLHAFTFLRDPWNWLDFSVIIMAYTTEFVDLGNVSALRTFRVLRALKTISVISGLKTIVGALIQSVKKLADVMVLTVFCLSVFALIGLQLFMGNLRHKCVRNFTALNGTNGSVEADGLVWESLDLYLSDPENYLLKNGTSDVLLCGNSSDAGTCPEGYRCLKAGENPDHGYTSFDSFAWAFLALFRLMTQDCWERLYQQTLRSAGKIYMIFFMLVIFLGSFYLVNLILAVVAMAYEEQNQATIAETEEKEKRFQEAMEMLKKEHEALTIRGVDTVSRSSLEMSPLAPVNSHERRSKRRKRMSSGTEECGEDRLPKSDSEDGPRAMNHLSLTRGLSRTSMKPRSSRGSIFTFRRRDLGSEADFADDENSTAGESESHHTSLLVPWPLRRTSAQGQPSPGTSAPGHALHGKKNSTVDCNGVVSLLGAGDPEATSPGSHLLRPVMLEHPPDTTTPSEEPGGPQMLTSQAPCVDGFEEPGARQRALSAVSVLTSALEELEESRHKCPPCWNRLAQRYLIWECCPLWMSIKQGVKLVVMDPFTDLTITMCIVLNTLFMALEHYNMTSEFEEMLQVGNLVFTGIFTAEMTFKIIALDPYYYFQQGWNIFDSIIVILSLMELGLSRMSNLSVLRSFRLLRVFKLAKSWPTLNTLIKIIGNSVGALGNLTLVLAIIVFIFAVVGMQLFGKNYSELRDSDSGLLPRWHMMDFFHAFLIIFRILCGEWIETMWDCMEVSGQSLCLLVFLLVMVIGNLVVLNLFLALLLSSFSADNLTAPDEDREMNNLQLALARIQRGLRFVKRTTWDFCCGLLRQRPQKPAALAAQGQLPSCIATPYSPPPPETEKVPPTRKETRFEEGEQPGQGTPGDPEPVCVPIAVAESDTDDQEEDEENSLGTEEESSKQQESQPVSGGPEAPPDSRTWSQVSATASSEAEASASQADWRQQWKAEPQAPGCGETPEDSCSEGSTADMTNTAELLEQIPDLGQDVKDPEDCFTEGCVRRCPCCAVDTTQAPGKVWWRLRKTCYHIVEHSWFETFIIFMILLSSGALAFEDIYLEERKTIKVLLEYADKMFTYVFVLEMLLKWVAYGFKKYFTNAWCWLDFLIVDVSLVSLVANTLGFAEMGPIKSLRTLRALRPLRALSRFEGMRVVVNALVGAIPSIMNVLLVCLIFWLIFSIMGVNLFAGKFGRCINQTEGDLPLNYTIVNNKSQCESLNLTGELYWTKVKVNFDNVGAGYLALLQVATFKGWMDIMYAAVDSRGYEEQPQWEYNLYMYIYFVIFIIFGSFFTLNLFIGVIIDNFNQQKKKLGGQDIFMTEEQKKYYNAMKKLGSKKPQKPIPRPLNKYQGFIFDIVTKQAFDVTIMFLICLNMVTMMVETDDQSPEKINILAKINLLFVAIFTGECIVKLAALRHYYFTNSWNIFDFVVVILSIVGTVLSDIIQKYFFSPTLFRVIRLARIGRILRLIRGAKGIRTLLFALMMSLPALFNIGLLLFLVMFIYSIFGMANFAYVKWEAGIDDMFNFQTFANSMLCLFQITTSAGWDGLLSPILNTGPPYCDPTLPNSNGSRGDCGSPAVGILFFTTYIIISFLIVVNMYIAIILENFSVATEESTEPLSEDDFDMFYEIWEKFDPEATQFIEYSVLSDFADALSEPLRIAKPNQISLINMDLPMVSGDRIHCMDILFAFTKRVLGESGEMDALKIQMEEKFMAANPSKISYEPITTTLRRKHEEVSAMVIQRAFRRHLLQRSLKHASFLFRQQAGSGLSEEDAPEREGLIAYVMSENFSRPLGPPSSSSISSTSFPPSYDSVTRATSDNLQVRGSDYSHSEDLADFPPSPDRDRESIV
# Experimental: as §1, §2, §3, §4
# hERG = hERG (Homo sapiens, UniProt Q12809); assay: in vitro; settings: 100% = no change, <100% = inhibition
# Sequence of hERG (Q12809 whole entry): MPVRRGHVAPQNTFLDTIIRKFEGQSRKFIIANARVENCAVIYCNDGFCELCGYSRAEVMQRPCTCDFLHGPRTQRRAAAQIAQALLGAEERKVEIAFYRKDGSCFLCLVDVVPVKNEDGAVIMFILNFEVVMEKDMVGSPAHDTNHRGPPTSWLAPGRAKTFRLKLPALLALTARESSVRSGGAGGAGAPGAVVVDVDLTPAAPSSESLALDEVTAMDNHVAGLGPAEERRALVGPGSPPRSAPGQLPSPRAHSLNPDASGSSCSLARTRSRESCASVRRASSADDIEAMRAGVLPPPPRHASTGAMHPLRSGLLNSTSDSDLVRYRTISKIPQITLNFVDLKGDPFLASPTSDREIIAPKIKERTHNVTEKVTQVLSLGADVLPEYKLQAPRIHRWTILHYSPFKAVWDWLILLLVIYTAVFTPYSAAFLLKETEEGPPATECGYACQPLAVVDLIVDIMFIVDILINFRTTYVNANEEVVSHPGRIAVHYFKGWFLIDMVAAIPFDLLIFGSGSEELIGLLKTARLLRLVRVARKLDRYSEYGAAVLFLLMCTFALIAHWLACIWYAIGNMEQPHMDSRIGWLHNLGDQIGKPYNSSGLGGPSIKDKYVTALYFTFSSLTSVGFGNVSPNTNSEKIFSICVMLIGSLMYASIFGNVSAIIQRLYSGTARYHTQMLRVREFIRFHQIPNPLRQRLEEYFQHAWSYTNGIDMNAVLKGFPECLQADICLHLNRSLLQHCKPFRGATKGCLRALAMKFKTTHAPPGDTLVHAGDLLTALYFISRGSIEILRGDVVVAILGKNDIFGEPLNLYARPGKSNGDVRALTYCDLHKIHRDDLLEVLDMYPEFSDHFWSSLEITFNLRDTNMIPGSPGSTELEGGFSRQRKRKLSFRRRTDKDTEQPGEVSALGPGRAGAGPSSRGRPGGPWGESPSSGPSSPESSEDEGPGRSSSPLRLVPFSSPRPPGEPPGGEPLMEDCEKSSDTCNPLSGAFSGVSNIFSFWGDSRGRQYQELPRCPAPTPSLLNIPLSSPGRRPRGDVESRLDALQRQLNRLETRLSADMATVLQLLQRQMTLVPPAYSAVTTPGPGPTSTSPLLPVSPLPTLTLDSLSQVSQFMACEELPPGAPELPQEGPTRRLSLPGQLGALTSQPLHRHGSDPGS
# Experimental: as §1, §2, §3, §4
# Kir2.1 = target: T7, Kir2.1 (Homo sapiens, UniProt P63252); assay: Ion channel panel (IonWorks Barracuda): Kir2.1; type: cell-based; settings: 100% = no change, <100% = inhibition
# T7 construct: host or cells: HEK293 or CHO
# In short: as §5
# Kv1.1 = target: T8, Kv1.1 (Homo sapiens, UniProt Q09470); assay: cell-based; type: cell-based; settings: 100% = no change, <100% = inhibition
# T8 construct: host or cells: HEK293 or CHO
# In short: as §5
# Kv1.2 = target: T9, Kv1.2 (Homo sapiens, UniProt P16389); assay: cell-based; type: cell-based; settings: 100% = no change, <100% = inhibition
# T9 construct: host or cells: HEK293 or CHO
# In short: as §5
# Kv1.3 = target: T10, Kv1.3 (Homo sapiens, UniProt P22001); assay: cell-based; type: cell-based; settings: 100% = no change, <100% = inhibition
# T10 construct: host or cells: HEK293 or CHO
# In short: as §5
# Nav1.7 = target: T11, Nav1.7 (Homo sapiens, UniProt Q15858); assay: cell-based; type: cell-based; settings: 100% = no change; for Activity of Nav1.7 with peptide, expressed as a percentage of the reference compound: peptide at 0.2 μM; for Activity of Nav1.7 with peptide (percentage of the reference compound): peptide at 20 μM
# T11 construct: host or cells: HEK293 or CHO
# T11 sequence (Q15858 whole entry): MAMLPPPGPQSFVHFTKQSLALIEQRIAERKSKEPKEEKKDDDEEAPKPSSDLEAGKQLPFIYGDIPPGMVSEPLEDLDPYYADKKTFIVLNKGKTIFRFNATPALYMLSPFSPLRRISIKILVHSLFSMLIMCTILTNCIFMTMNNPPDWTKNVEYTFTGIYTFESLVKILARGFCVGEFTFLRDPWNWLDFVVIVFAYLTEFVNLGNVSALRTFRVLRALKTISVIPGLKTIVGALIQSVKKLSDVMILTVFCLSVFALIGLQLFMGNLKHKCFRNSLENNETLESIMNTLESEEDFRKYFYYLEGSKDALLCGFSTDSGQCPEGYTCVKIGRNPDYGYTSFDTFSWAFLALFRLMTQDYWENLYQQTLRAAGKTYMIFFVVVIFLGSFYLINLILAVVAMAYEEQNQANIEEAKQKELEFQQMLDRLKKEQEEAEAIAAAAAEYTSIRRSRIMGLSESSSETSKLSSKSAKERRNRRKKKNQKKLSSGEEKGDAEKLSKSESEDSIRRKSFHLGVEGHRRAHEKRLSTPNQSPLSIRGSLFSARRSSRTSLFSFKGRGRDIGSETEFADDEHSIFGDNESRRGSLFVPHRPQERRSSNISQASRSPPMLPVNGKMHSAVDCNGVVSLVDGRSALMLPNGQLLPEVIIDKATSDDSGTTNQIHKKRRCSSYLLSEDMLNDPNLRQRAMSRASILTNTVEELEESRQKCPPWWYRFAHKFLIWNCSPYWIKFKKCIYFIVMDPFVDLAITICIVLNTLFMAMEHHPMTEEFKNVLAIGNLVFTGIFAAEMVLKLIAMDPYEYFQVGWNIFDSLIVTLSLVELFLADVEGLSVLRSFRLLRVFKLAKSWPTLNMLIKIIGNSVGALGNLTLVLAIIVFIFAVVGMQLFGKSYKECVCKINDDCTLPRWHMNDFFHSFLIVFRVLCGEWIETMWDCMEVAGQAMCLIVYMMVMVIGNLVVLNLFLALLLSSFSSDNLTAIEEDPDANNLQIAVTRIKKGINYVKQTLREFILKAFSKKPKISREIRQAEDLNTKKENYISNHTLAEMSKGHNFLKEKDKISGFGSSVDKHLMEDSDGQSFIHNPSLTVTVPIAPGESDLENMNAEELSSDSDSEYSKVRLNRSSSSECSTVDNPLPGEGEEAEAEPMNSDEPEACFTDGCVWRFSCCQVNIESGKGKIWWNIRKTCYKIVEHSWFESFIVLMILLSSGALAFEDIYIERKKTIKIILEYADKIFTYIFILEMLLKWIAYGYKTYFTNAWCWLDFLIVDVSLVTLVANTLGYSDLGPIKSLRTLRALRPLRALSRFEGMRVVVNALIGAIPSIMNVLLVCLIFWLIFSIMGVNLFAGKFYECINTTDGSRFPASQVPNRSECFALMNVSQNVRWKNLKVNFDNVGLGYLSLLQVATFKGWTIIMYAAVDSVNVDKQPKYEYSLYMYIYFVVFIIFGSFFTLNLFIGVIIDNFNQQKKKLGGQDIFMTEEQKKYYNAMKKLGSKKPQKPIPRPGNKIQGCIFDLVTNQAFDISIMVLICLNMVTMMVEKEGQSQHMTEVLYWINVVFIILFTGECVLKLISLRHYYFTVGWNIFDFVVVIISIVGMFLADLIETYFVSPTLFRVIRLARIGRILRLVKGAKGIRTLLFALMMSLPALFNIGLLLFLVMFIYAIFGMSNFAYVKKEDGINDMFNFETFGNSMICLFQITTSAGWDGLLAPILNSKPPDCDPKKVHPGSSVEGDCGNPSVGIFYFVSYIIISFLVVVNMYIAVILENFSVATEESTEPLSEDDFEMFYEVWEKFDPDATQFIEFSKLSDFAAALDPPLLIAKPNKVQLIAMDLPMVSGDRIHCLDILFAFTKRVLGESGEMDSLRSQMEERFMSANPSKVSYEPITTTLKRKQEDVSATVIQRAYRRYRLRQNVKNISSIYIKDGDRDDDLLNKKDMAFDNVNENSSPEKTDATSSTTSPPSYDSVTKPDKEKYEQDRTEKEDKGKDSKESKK
# NR2A = target: T12, NR2A (Homo sapiens, UniProt Q12879); assay: Ion channel panel (IonWorks Barracuda): NR2A; type: cell-based; settings: 100% = no change, <100% = inhibition
# T12 construct: host or cells: HEK293 or CHO
# Experimental: as §1, §2, §3, §4
# NR2B = target: T13, NR2B (Homo sapiens, UniProt Q13224); assay: Ion channel panel (IonWorks Barracuda): NR2B; type: cell-based; settings: 100% = no change, <100% = inhibition
# T13 construct: host or cells: HEK293 or CHO
# Experimental: as §1, §2, §3, §4
# TRPA1 = target: T14, TRPA1 (Homo sapiens, UniProt O75762); assay: Ion channel panel (IonWorks Barracuda): TRPA1; type: cell-based; settings: 100% = no change, <100% = inhibition
# T14 construct: host or cells: HEK293 or CHO
# Experimental: as §1, §2, §3, §4
# TRPV1 = target: T15, TRPV1 (Homo sapiens, UniProt Q8NER1); assay: Ion channel panel (IonWorks Barracuda): TRPV1; type: cell-based; settings: 100% = no change, <100% = inhibition
# T15 construct: host or cells: HEK293 or CHO
# In short: as §5
# [1] = first of two Nav1.5 columns (probably TP1)
# [2] = second of two Nav1.5 columns (probably TP2)
# [3] = first of two Nav1.7 columns (probably TP1)
# [4] = second of two Nav1.7 columns (probably TP2)
substance,measurement,setting,value
5 (GSGVPINVKCRGSRDCLDPCKKAGMRFGKCINSKCHCTP) [compound 5],Activity of 5HT3a with peptide (percentage of the reference compound),5HT3a,80%
same,"Activity of 5HT3a with peptide, expressed as a percentage of the reference compound",5HT3a,94%
same,"Activity of a3b4 with peptide, expressed as a percentage of the reference compound",α3β4; peptide at 0.2 μM,104%
same,Activity of a3b4 with peptide (percentage of the reference compound),α3β4; peptide at 20 μM,90%
same,"Activity of a4b2 with peptide, expressed as a percentage of the reference compound",α4β2; peptide at 0.2 μM,83%
same,Activity of a4b2 with peptide (percentage of the reference compound),α4β2; peptide at 20 μM,93%
same,"Activity of Cav2.1 with peptide, expressed as a percentage of the reference compound",Cav2.1; peptide at 0.2 μM,100%
same,Activity of Cav2.1 with peptide (percentage of the reference compound),Cav2.1; peptide at 20 μM,121%
same,"Activity of Cav2.2 with peptide, expressed as a percentage of the reference compound",Cav2.2; peptide at 0.2 μM,94%
same,Activity of Cav2.2 with peptide (percentage of the reference compound),Cav2.2; peptide at 20 μM,117%
same,"Activity of Kv2.1 with peptide, expressed as a percentage of the reference compound",Kv2.1; peptide at 0.2 μM,110%
same,Activity of Kv2.1 with peptide (percentage of the reference compound),Kv2.1; peptide at 20 μM,109%
same,"Activity of GABA with peptide, expressed as a percentage of the reference compound",GABA; peptide at 0.2 μM,109%
same,Activity of GABA with peptide (percentage of the reference compound),GABA; peptide at 20 μM,114%
same,"Activity of Nav1.5 with peptide, expressed as a percentage of the reference compound",Nav1.5; [1],107%
same,"Activity of Nav1.5 with peptide, expressed as a percentage of the reference compound",Nav1.5; [2],107%
same,Activity of Nav1.5 with peptide (percentage of the reference compound),Nav1.5; [1],103%
same,Activity of Nav1.5 with peptide (percentage of the reference compound),Nav1.5; [2],105%
same,"Activity of hERG with peptide, expressed as a percentage of the reference compound",hERG; peptide at 0.2 μM,106%
same,Activity of hERG with peptide (percentage of the reference compound),hERG; peptide at 20 μM,67%
same,"Activity of Kir2.1 with peptide, expressed as a percentage of the reference compound",Kir2.1; peptide at 0.2 μM,103%
same,Activity of Kir2.1 with peptide (percentage of the reference compound),Kir2.1; peptide at 20 μM,86%
same,"Activity of Kv1.1 with peptide, expressed as a percentage of the reference compound",Kv1.1; peptide at 0.2 μM,86%
same,Activity of Kv1.1 with peptide (percentage of the reference compound),Kv1.1; peptide at 20 μM,55%
same,"Activity of Kv1.2 with peptide, expressed as a percentage of the reference compound",Kv1.2; peptide at 0.2 μM,89%
same,Activity of Kv1.2 with peptide (percentage of the reference compound),Kv1.2; peptide at 20 μM,73%
same,"Activity of Kv1.3 with peptide, expressed as a percentage of the reference compound",Kv1.3; peptide at 0.2 μM,98%
same,Activity of Kv1.3 with peptide (percentage of the reference compound),Kv1.3; peptide at 20 μM,28%
same,"Activity of Nav1.7 with peptide, expressed as a percentage of the reference compound",Nav1.7; [3],98%
same,"Activity of Nav1.7 with peptide, expressed as a percentage of the reference compound",Nav1.7; [4],109%
same,Activity of Nav1.7 with peptide (percentage of the reference compound),Nav1.7; [3],79%
same,Activity of Nav1.7 with peptide (percentage of the reference compound),Nav1.7; [4],66%
same,"Activity of NR2A with peptide, expressed as a percentage of the reference compound",NR2A; peptide at 0.2 μM,109%
same,Activity of NR2A with peptide (percentage of the reference compound),NR2A; peptide at 20 μM,86%
same,"Activity of NR2B with peptide, expressed as a percentage of the reference compound",NR2B; peptide at 0.2 μM,112%
same,Activity of NR2B with peptide (percentage of the reference compound),NR2B; peptide at 20 μM,95%
same,"Activity of TRPA1 with peptide, expressed as a percentage of the reference compound",TRPA1; peptide at 0.2 μM,119%
same,Activity of TRPA1 with peptide (percentage of the reference compound),TRPA1; peptide at 20 μM,75%
same,"Activity of TRPV1 with peptide, expressed as a percentage of the reference compound",TRPV1; peptide at 0.2 μM,101%
same,Activity of TRPV1 with peptide (percentage of the reference compound),TRPV1; peptide at 20 μM,101%
